Measured values taken from patent publication US8282967B2, “Nitric oxide-releasing particles for nitric oxide therapeutics and biomedical applications” (The University of North Carolina at Chapel Hill, priority 2005, dated 2012).

Experiments:
[1] = system: A2780 ovarian epithelial tumor cells; test: MTT cell viability assay, A2780 cells; format: cell-based, human; conditions: small molecule NO donor; cell line not named in the sentence (b369 names OVCAR-3 for PYRRO/NO)
Protocol: To evaluate the tumoricidal potential of NO donor silica nanoparticles, the cytotoxicity of control and NO-releasing silica particles on immortalized normal (T29) and cancer (A2780 and OVCAR-3) human ovarian epithelial cells was tested. MTT cell viability assays were performed as described below. The 3-(4,5-dimethylthiazol-2-yl-)-2,5-diphenyltetrazoliumbromide (MTT) proliferation assay was employed to determine the relative sensitivities of OVCAR-3 cells to PYRRO/NO. Cells were seeded in 6 replicates at 1−5×10^3 cells/well in 96-well microtiter plates, incubated overnight, and exposed to concentrations of NO donor and control pyrrolidine solutions for 48 h. The NO-releasing medium was then removed and replaced by MTT solution, upon which the cells were incubated for an additional 4 h at 37° C. Following removal of the MTT, DMSO was added, and the absorption of the solution was measured at 560 nm using a microplate reader.
To investigate whether nanoparticle size affects cytotoxicity, two silica nanoparticles (75 mol % MAP3, balance TEOS) of different particle size (80 and 350 nm in diameter, hereafter referred to as s-MAP3 and L-MAP3, respectively) were synthesized. […] Cell viability was determined by incubating T29 and A2780 with non NO-releasing control MAP3 particle (80 nm), s-MAP3, or L-MAP3 (0.4 mg/mL) for 48 h. […]

[2] = Nitric oxide release from diazeniumdiolated materials; format: physicochemical
Protocol: Nitric oxide release of the presently disclosed NO-releasing particles was measured according to the following general procedure. Referring now to FIG. 12, a predetermined volume of phosphate buffer solution (PBS) (pH 7.4, 37° C.) was disposed in a receptacle, e.g., a round-bottomed flask. The receptacle was sealed, leaving an inlet for nitrogen gas and an outlet for a mixture of nitrogen and nitric oxide. The outlet was in fluid communication with a chemiluminescence nitric oxide analyzer. An aliquot of a solution containing a diazeniumdiolated species was injected into the PBS buffer. The chemiluminescence nitric oxide analyzer measured the amount of NO that reacted with ozone (O3) to form excited NO2*, which emitted electromagnetic radiation (hv) as shown in Scheme 2. […] NO2*→NO2+hv Scheme 2. Measurement of NO by chemiluminescence.
NO release from a variety of NO-releasing materials was measured according to the procedure outlined in Example 3. The diazeniumdiolated fumed silica particles were prepared as described in Example 9, below, grafting the fumed silica surface to N-(6-aminohexyl)-3-aminopropyltrimethoxysilane, followed by diazeniumdiolation of the secondary amine with NO gas.

Row | Compound | Cytotoxic NO concentration [1] [mM NO] | NO Released [2] [mmol NO/g] | tv2 [2]
1 | [Na+].[O-]N=[N+]([O-])N1CCCC1 [PYRRO/NO] | 4.4 | – | –
2 | Proteins (Bovine serum albumin (BSA): diazeniumdiolated bovine serum albumin | – | 0.54 | 7.2E4. min
